Test results from article PMC2567903, “Repetitive N-WASP–Binding Elements of the Enterohemorrhagic Escherichia coli Effector EspFU Synergistically Activate Actin Assembly” (PLoS Pathogens, 2008).

Molecular target: T1, His6-Flag-tagged human N-WASP (human, UniProt O00401 1-505)
T1 construct: also called His-Flag-N-WASP; N-WASP of the recombinant N-WASP/WIP complex
Experiment: SEC
Conditions: partners not purified

T1 sequence (O00401 whole entry): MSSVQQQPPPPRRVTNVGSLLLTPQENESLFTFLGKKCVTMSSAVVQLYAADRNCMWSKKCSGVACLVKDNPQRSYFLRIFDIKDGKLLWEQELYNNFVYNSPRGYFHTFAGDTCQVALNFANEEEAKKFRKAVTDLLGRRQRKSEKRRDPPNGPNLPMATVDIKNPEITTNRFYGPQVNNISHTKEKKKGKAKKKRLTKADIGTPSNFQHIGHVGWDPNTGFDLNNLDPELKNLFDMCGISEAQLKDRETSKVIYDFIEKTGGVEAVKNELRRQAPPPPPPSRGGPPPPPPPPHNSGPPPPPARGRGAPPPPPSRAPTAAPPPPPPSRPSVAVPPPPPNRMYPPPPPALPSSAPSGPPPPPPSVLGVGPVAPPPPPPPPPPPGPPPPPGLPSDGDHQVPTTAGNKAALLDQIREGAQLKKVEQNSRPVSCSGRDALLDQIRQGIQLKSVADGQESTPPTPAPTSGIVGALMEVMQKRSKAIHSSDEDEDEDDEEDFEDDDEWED

B1: His6-Myc-tagged human WIP (natural protein)
chain: not shown
notes: also called His-Myc-WIP
Which “stoichiometry N” value does the source give for B1 here?
The value was 1.
